2 molecules from patent publication US20040052794A1 (published 2004) can be followed below.

Experiment [1] deals with T1, GST-RB18A-N1 (aa 436 to 1566) fusion protein (human, UniProt Q15648 451-1581).
T1 construct: D9 cDNA cloned downstream of the glutathione transferase gene in pGEX4T-3; also called GST-RB18A fusion protein; mutant 1; not shown: GST moiety (glutathione transferase of pGEX4T-3) and the vector linker between GST and RB18A
Description: GST pull-down of 35S-translated product on glutathione Sepharose beads. The text has this: (§1) GST fusion proteins were produced in E. coli strain BL21 and purified on glutathione Sepharose 4B beads (Pharmacia LKB) as described by the manufacturer. […] After washing, pelleting, and boiling in Laemmli buffer, eluted proteins were resolved on 10% SDS/PAGE and visualized by autoradiography.

Experiment [2] addresses T1, GST-RB18A-N1 (aa 436 to 1566) fusion …. Description: GST pull-down, quantification of retained protein.
Text: as §1

In experiment [3] the target is human wild-type p53 (product of p53-H8 cDNA, plasmid pSP65-p53H8) (human, UniProt P04637 1-393). Description: cell-based or functional assay.
human wild-type p53 (product of p53-H8 cDNA, plasmid pSP65-p53H8), sequence (P04637 whole entry): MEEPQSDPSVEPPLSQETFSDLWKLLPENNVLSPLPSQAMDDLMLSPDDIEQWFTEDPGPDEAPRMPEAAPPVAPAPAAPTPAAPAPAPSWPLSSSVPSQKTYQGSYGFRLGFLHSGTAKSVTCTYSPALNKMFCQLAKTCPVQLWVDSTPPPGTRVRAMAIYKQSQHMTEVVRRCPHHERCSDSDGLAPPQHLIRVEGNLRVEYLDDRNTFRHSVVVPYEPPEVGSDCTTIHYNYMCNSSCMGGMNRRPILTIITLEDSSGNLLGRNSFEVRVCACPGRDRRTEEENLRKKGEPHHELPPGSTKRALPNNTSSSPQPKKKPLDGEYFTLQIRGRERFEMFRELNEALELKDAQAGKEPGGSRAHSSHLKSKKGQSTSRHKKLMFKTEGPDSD

B1: in vitro translated product of D9 cDNA (partial RB18A, aa 436 to 1566) (other)
chain: SVSFQHPVNDSLVCVVMDVQGLTHVSCKLYKGLSDALICTDDFIAKVVQRCMSIPVTMRAIRRKAETIQADTPALSLIAETVEDMVKKNLPPASSPGYGMTTGNNPMSGTTTSTNTFPGGPIATLFNMSMSIKDRHESVGHGEDFSKVSQNPILTSLLQITGNGGSTIGSSPTPPHHTPPPVSSMAGNTKNHPMLMNLLKDNPAQDFSTLYGSSPLERQNSSSGSPRMEICSGSNKTKKKKSSRLPPEKPKHQTEDDFQRELFSMDVDSQNPIFDVNMTADTLDTPHITPAPSQCSTPPTTYPQPVPHPQPSIQRMVRLSSSDSIGPDVTDILSDIAEEASKLPSTSDDCPAIGTPLRDSSSSGHSQSTLFDSDVFQTNNNENPYTDPADLIADAAGSPSSDSPTNHFFHDGVDFNPDLLNSQSQSGFGEEYFDESSQSGDNDDFKGFASQALNTLGVPMLGGDNGETKFKGNNQADTVDFSIISVAGKALAPADLMEHHSGSQGPLLTTGDLGKEKTQKRVKEGNGTSNSTLSGPGLDSKPGKRSRTPSNDGKSKDKPPKRKKADTEGKSPSHSSSNRPFTPPTSTGGSKSPGSAGRSQTPPGVATPPIPKITIQIPKGTVMVGKPSSHSQYTSSGSVSSSGSKSHHSHSSSSSSSASTSGKMKSSKSEGSSSSKLSSSMYSSQGSSGSSQSKNSSQSGGKPGSSPITKHGLSSGSSSTKMKPQGKPSSLMNPSLSKPNISPSHSRPPGGSDKLASPMKPVPGTPPSSKAKSPISSGSGGSHMSGTSSSSGMKSSSGLGSSGSLSQKTPPSSNSCTASSSSFSSSGSSMSSSQNQHGSSKGKSPSRNKKPSLTAVIDKLKHGVVTSGPGGEDPLDGQMGVSTNSSSHPMSSKHNMSGGEFQGKREKSDKDKSKVSTSGSSVDSSKKTSESKNVGSTGVAKIIISKHDGGSPSIKAKVTLQKPGESSGEGLRPQMASSKNYGSPLISGSTPKHERGSPSHSKSPAYTPQNLDSESESGSSIAEKSYQNSPSSDDGIRPLPEYSTEKHKKHKKEKKKVKDKDRDRDRDKDRDKKKSHSIKPESWSKSPISSDQSLSMTSNTILSADRPSRLSPDFMIGEEDDDLMDVALIGN
modifications: 35S-methionine labelled
notes: also called 35S-RB18A protein; in vitro translated D9 protein
As to B1, in experiment [1], the “% of input bound” value was 10 % of input. The “molar ratio retained on GST-RB18A” value in experiment [2] was determined as 1 molar ratio.

B2: carboxy-terminal domain of RB18A expressed in transfected cells (cDNA nucleotides 3935 to 4933) (other)
chain: LGSSGSLSQKTPPSSNSCTASSSSFSSSGSSMSSSQNQHGSSKGKSPSRNKKPSLTAVIDKLKHGVVTSGPGGEDPLDGQMGVSTNSSSHPMSSKHNMSGGEFQGKREKSDKDKSKVSTSGSSVDSSKKTSESKNVGSTGVAKIIISKHDGGSPSIKAKVTLQKPGESSGEGLRPQMASSKNYGSPLISGSTPKHERGSPSHSKSPAYTPQNLDSESESGSSIAEKSYQNSPSSDDGIRPLPEYSTEKHKKHKKEKKKVKDKDRDRDRDKDRDKKKSHSIKPESWSKSPISSDQSLSMTSNTILSADRPSRLSPDFMIGEEDDDLMDVALIGN
As for B2, in experiment [3], the “activation of the IGF-BP3 promoter (reporter gene in H1299 and K562 cells)” value was 13 fold; the “activation of the MDM2 promoter (reporter gene in H1299 and K562 cells)” value amounted to 5 fold; the “activation of the p21Waf1 promoter (reporter gene in H1299 and K562 cells)” value was 10 fold.
